{"source": "patent US20180223285", "key": {"human C5a (Homo sapiens)": {"target": "T1, human C5a (Homo sapiens) (UniProt P01031)", "T1 sequence": "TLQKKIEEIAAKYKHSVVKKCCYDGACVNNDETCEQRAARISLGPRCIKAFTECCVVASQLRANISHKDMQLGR", "test": "SPR", "conditions": "L-RNA"}, "human C5 (Homo sapiens)": {"target": "human C5 (Homo sapiens) (UniProt P01031)", "test": "cell_activity", "conditions": "maximal 2'-OMe purine and 2'-F pyrimidine substitution; complement-dependent sheep erythrocyte hemolysis in human serum; positive control"}, "[1]": {"target": "T2, human desArg-C5a (Homo sapiens) (UniProt P01031)", "T2 sequence": "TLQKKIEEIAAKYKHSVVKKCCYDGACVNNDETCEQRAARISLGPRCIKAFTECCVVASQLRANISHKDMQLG", "test": "SPR", "conditions": "L-RNA, 5' 40 kDa PEG, Biacore, HBS-EP, 37 C"}, "mouse C5a (Mus musculus)": {"target": "T3, mouse C5a (Mus musculus) (UniProt P06684)", "T3 sequence": "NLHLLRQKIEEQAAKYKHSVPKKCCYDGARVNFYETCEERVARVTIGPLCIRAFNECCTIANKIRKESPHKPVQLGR", "test": "SPR", "conditions": "L-RNA, Biacore, HBS-EP, 37 C"}, "[2]": {"target": "T4, mouse desArg-C5a (Mus musculus) (UniProt P06684)", "T4 sequence": "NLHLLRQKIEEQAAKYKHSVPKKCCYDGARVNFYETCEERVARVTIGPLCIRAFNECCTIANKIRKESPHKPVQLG", "test": "SPR", "conditions": "L-RNA; L-2'-deoxy dU7,dU28,dC38; 5' 40 kDa PEG; Biacore, HBS-EP, 37 C"}, "[3]": {"conditions": "L-2'-deoxy dU5,dG12,dA13,dU26,dU28,dC36, terminal stretch truncated to one nucleotide, reduced activity, exact value in figure"}}}
{"substance": "GAUGUGGUGGUGAAGGGUUGUUGGGUGUCGACGCACAGC [NOX-D19001-6xDNA-024]", "values": [{"measurement": "Kd", "setting": "human C5a (Homo sapiens); [3]", "value": "< 10", "unit": "nM"}]}
{"substance": "GAUGUGGUGGUGAAGGGUUGUUGGGUGUCGACGCACGC [NOX-D19001-6xDNA-029]", "values": [{"measurement": "Kd", "setting": "human C5a (Homo sapiens); [3]", "value": "< 10", "unit": "nM"}]}
{"substance": "GCGAUGUGGUGGUGAAGGGUUGUUGGGUGUCGACGCACGC [NOX-D19001-3dU-1dC-020]", "values": [{"measurement": "Kd", "setting": "human C5a (Homo sapiens); L-2'-deoxy dU7,dU28,dU30,dC38, stated as improved by more than factor 10 vs 11.3 nM of NOX-D19001-020, exact value in figure", "value": "< 1.13", "unit": "nM"}]}
{"substance": "GCGAUGUGGUGGUGAAGGGUUGUUGGGUGUCGACGCACGC [NOX-D21001 (NOX-D19001-2dU-1dC-020)]", "values": [{"measurement": "Kd", "setting": "human C5a (Homo sapiens); L-2'-deoxy dU7,dU28,dC38, stated as improved by more than factor 10 vs 11.3 nM of NOX-D19001-020, exact value in figure", "value": "< 1.13", "unit": "nM"}]}
{"substance": "GAUGUGGUGGUGAAGGGUUGUUGGGUGUCGACGCACAGGC [NOX-D19001-6xDNA-010]", "values": [{"measurement": "Kd", "setting": "human C5a (Homo sapiens); [3]", "value": "< 10", "unit": "nM"}]}
{"substance": "C5C6 aptamer (Biesecker et al. 1999)", "values": [{"measurement": "IC50", "setting": "human C5 (Homo sapiens)", "value": 1000, "unit": "nM"}]}
{"substance": "GCGAUGUGGUGGUGAAGGGUUGUUGGGUGUCGACGCACGC [NOX-D21 (NOX-D19001-2dU-1dC-020-5'40kDa-PEG)]", "values": [{"measurement": "Kd", "setting": "human C5a (Homo sapiens); L-2'-deoxy dU7,dU28,dC38, 5' 40 kDa PEG, Biacore, HBS-EP, 37 C", "value": 0.815, "unit": "nM"}, {"measurement": "Kd", "setting": "[1]; L-2'-deoxy dU7,dU28,dC38", "value": 0.854, "unit": "nM"}, {"measurement": "Kd", "setting": "mouse C5a (Mus musculus); L-2'-deoxy dU7,dU28,dC38, 5' 40 kDa PEG", "value": 0.029, "unit": "nM"}, {"measurement": "Kd", "setting": "[2]", "value": 0.028, "unit": "nM"}]}
{"substance": "GCGAUGUGGUGGUGAAGGGUUGUUGGGUGUCGACGCACGC [NOX-D19001-020]", "values": [{"measurement": "Kd", "setting": "human C5a (Homo sapiens); Biacore, HBS-EP, 37 C", "value": 11.3, "unit": "nM"}]}
{"substance": "GCCUGAUGUGGUGGUGAAGGGUUGUUGGGUGUCGACGCACAGGC [NOX-D19001 (274-C8-002-G14)]", "values": [{"measurement": "Kd", "setting": "human C5a (Homo sapiens); Biacore, HBS-EP, 37 C", "value": 1.38, "unit": "nM"}, {"measurement": "Kd", "setting": "mouse C5a (Mus musculus)", "value": 0.3, "unit": "nM"}]}
{"substance": "GCGAUGUGGUGGUGAAGGGUUGUUGGGUGUCGACGCAC [NOX-D19001-6xDNA-032]", "values": [{"measurement": "Kd", "setting": "human C5a (Homo sapiens); L-2'-deoxy dU7,dG14,dA15,dU28,dU30,dC38, terminal stretch truncated to one nucleotide, reduced activity, exact value in figure", "value": "< 10", "unit": "nM"}]}
{"substance": "GCGAUGUGGUGGUGAAGGGUUGUUGGGUGUCGACGCACGC [NOX-D20001 (NOX-D19001-6xDNA-020)]", "values": [{"measurement": "Kd", "setting": "human C5a (Homo sapiens); L-2'-deoxy dU7,dG14,dA15,dU28,dU30,dC38, Biacore, HBS-EP, 37 C", "value": 0.3, "unit": "nM"}]}
{"substance": "GCGAUGUGGUGGUGAAGGGUUGUUGGGUGUCGACGCACGC [NOX-D20 (NOX-D19001-6xDNA-020-5'40kDa-PEG)]", "values": [{"measurement": "Kd", "setting": "human C5a (Homo sapiens); L-2'-deoxy dU7,dG14,dA15,dU28,dU30,dC38, 5' 40 kDa PEG, Biacore, HBS-EP, 37 C", "value": 0.299, "unit": "nM"}, {"measurement": "Kd", "setting": "[1]; L-2'-deoxy dU7,dG14,dA15,dU28,dU30,dC38", "value": 0.316, "unit": "nM"}, {"measurement": "Kd", "setting": "mouse C5a (Mus musculus); L-2'-deoxy dU7,dG14,dA15,dU28,dU30,dC38, 5' 40 kDa PEG", "value": 0.019, "unit": "nM"}]}
{"substance": "GCCUGAUGUGGUGGUGAAGGGUUGUUGGGUGUCGACGCACAGGC [NOX-D19001-D09]", "values": [{"measurement": "Kd", "setting": "human C5a (Homo sapiens); L-2'-deoxy dU9, Biacore, HBS-EP, 37 C", "value": 0.709, "unit": "nM"}]}
{"substance": "GCGAUGUGGUGGUGAAGGGUUGUUGGGUGUCGACGCACGC [NOX-D19001-2xDNA-020]", "values": [{"measurement": "Kd", "setting": "human C5a (Homo sapiens); L-2'-deoxy dU7,dU28, stated as improved by more than factor 10 vs 11.3 nM of NOX-D19001-020, exact value in figure", "value": "< 1.13", "unit": "nM"}]}
{"substance": "GCGAUGUGGUGGUGAAGGGUUGUUGGGUGUCGACGCACGC [NOX-D19001-3xDNA-020]", "values": [{"measurement": "Kd", "setting": "human C5a (Homo sapiens); L-2'-deoxy dU7,dU28,dU30, stated as improved by more than factor 10 vs 11.3 nM of NOX-D19001-020, exact value in figure", "value": "< 1.13", "unit": "nM"}]}
{"substance": "GCCUGAUGUGGUGGUGAAGGGUUGUUGGGUGUCGACGCACAGGC [NOX-D19001-6xDNA (D09-16-17-30-32-40)]", "values": [{"measurement": "Kd", "setting": "human C5a (Homo sapiens); L-2'-deoxy dU9,dG16,dA17,dU30,dU32,dC40, Biacore, HBS-EP, 37 C", "value": 0.361, "unit": "nM"}]}
